# Data from publication PMC4083873, “Expression and characterization of a β-fructofuranosidase from the parasitic protist Trichomonas vaginalis” (BMC Biochemistry, 2014).
# B1: T. vaginalis β-fructofuranosidase (Trichomonas vaginalis G3) (protein)
# chain: MNFSSRLKFHFEPLKGWMNDPNGLIQFKGEYHAFFQHYPFDTKWGPMHWGHATSKDLIHWEHKPIALYPDQEYENNGGCFSGSAIEFNDKLHIFYTGVGKSNGQSQCHAVMQDENRFIKDPKNPIIKSPPIEYGINDFRDPKVVKIENTFYMVVGTGKDGIGRVLLYKSSNLENWTFLNLLVEGKEYGQCCECPDLIQIDNQFFLMFSQMTGQGIGTLFFHLKYENGTFTVDKKLNQPIIGPDFYAPQTFHDDKGRRIIIGWLYNWKRVPPKEVDYAGAFTIPCELKYKEGKIVVNPIDEISHELKSESKFVEIQENKLIINGKPSVIHEGKIENIKILEDVKTIEVWINNGEFYYSTWLF
# notes: E. coli BL21(DE3); IMAC; calculated 44 kDa
# Assays:
# [1] = substrate: OC[C@H]1O[C@H](OC[C@H]2O[C@H](O[C@]3(CO)O[C@H](CO)[C@@H](O)[C@@H]3O)[C@H](O)[C@@H](O)[C@@H]2O)[C@H](O)[C@@H](O)[C@H]1O; experiment: coupled hexokinase / glucose-6-phosphate dehydrogenase / phosphoglucose isomerase assay of released fructose; Michaelis-Menten fit; assay type: biochemical, Trichomonas vaginalis; settings: 20 mM sodium acetate, pH 5.0, 30 °C, ~27 nM enzyme
# Excerpt: coupled hexokinase / glucose-6-phosphate dehydrogenase / phosphoglucose isomerase assay of released fructose; Michaelis-Menten fit on T. vaginalis β-fructofuranosidase
# [2] = substrate: OC[C@H]1O[C@@](CO)(O[C@H]2O[C@H](CO)[C@@H](O)[C@H](O)[C@H]2O)[C@@H](O)[C@@H]1O; experiment: coupled hexokinase / glucose-6-phosphate dehydrogenase assay of released glucose; Michaelis-Menten fit; assay type: biochemical, Trichomonas vaginalis; settings: 20 mM sodium acetate, pH 5.0, 30 °C, ~27 nM enzyme
# Excerpt: coupled hexokinase / glucose-6-phosphate dehydrogenase assay of released glucose; Michaelis-Menten fit on T. vaginalis β-fructofuranosidase
protein,measurement,setting,value
B1,Km,[1],5.5 ± 0.9 mM
same,Vmax,[1],368 µmol/min/mg
same,kcat,[1],270 ± 12 s⁻¹
same,Km,[2],20.6 ± 2.2 mM
same,Vmax,[2],1580 µmol/min/mg
same,kcat,[2],1160 ± 36 s⁻¹
